Measured values: patent US20190177417A1 (BIOATLA, published 2019)
Numbering of substitutions follows the chain as printed. Names may count otherwise.

T1: Axl protein (human, UniProt P30530 26-451)
T1 construct: extracellular domain; also called human Axl; hAxl
T1 sequence (looked up): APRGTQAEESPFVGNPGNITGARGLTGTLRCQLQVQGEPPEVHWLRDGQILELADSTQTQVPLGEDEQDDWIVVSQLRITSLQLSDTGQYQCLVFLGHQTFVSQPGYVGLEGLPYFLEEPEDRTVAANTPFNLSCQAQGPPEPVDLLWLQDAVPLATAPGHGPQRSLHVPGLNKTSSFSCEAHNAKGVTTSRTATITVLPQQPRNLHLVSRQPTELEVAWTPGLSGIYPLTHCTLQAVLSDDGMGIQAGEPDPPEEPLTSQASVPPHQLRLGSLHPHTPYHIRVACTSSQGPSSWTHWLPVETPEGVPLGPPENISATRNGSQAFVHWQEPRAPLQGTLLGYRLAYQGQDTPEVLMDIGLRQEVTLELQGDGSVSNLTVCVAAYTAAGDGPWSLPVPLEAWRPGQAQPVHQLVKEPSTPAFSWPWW

B1: LC-L096G (antibody, V domains shown)
VH: EVQLVQSGAEVKKPGATVKISCKVSGYSFTGHTMNWIRQPPGKGLEWIGLIKPSNGGTSYNQKFKGRVTISADKSISTAYLQWSSLKASDTAMYYCAHGHYESYFAMDYWGQGTLVTVSS
VL: DIQMTQSPSSLSASVGDRVTITCKASQDVSSAVAWYQQKPGQAPRLLIYWASTRHTGVPSRFSGSGSGTEFTLTISSLQPDDFATYYCQEHFSTPGTFGQGTKVEIK
B2: LC-P095T (antibody, V domains shown)
VH: B1 VH
VL: B1 VL with P95T, G96L
B3: LC-P095W (antibody, V domains shown)
VH: B1 VH
VL: B1 VL with P95W, G96L
B4: LC-P095V (antibody, V domains shown)
VH: B1 VH
VL: B1 VL with P95V, G96L
B5: LC-L096R (antibody, V domains shown)
VH: B1 VH
VL: B1 VL with G96R
B6: LC-T097I (antibody, V domains shown)
VH: B1 VH
VL: B1 VL with G96L, T97I

The binders below were run against T1, Axl protein (assay: ELISA, 1:3 dilution, pH 6.0 over pH 7.4).

Row | Binder | Affinity ELISA CPE mutant ratio (1:3, pH 6.0/7.4) [ratio]
1 | B1 | 2.17
2 | B2 | 2.5
3 | B3 | 2.15
4 | B4 | 1.87
5 | B5 | 2.88
6 | B6 | 3.09

The binders below were run against T1, Axl protein (assay: ELISA, 1:9 dilution, pH 6.0 over pH 7.4).

Row | Binder | Affinity ELISA CPE mutant ratio (1:9, pH 6.0/7.4) [ratio]
7 | B1 | 2.44
8 | B2 | 2.09
9 | B3 | 2.26
10 | B4 | 2.13
11 | B5 | 2.18
12 | B6 | 4.05
